Laboratory results published in patent publication US20120295811, “APTAMERS DIRECTED AGAINST THE MATRIX PROTEIN-1 OF TYPE A INFLUENZA VIRUSES AND USES […]” (published 2012).

Target: Matrix protein-1 (M1) (Influenza A virus) (UniProt B4URD8)
Details: low-density aptamer microarray, 50x dilution

In the case of tRNA, the binding signal (fluorescence units) is reported as -55.
